Assay results taken from patent US20110281938, “APTAMERS TO TISSUE FACTOR PATHWAY INHIBITOR AND THEIR USE AS BLEEDING DISORDER THERAPEUTICS” (Baxter Healthcare S.A., published 2011).

Columns and labels:
Settings in all cases: tags: American Diagnostica 4500PC/4900PC, E. coli expressed
[1] = target: T1, TFPI (tissue factor pathway inhibitor, full-length) (Homo sapiens, UniProt P10646 SEQ:1-276); assay: competition; meets binding-competition criterion
Method: Each molecule was evaluated for binding to tissue factor pathway inhibitor (TFPI) in a binding-competition assay. For these experiments, 10 nM human TFPI (American Diagnostica, Stamford, Conn., catalog #4500PC) was incubated with trace amounts of radiolabeled ARC17480 and 5000 nM, 1666.67 nM, 555.56 nM, 185.19 nM, 61.73 nM, 20.58 nM, 6.86 nM, 2.29 nM, 0.76 nM or 0.25 nM of unlabeled competitor aptamer. ARC17480 was included as a competitor in every experiment as a control. For each molecule, the percentage of radiolabeled ARC17480 bound at each competitor aptamer concentration was used for analysis. The percentage of radiolabeled ARC17480 bound was plotted as a function of aptamer concentration and fit to the equation y=(max/(1+x/IC₅₀))+int, where y=the percentage of radiolabeled ARC17480 bound, x=the concentration of aptamer, max=the maximum radiolabeled ARC17480 bound, and int=the y-intercept, to generate an IC₅₀ value for binding-competition. The IC₅₀ of each aptamer was compared to the IC₅₀ of ARC17480 that was evaluated in the same experiment. A substitution was considered tolerated in the binding-competition assay if the IC₅₀ of that molecule was not more than 5-fold greater than that of ARC17480 evaluated in the same experiment. Tolerated substitutions are indicated in Table 38 as meeting the assay criteria (“yes”) or not meeting the assay criteria (“no”).

[2] = target: T1, TFPI (tissue factor pathway inhibitor, …); assay: competition; meets binding-competition criterion; remark: listed apart in the source
Method: (§1) The substituted ARC17480 molecules were assayed for binding and function. The assays used for this evaluation were the calibrated automated thrombogram (CAT) assay, a dot-blot binding-competition assay and a FXa activity assay. The results of these assays are summarized in Table 40 and depicted in FIG. 147. A mutation was considered tolerated for activity if it met the criteria of at least two of the three assays that were carried out. Mutations that are tolerated (“yes”) and not tolerated (“no”) are identified in Table 40. The experimental details and the criteria used for each assay are described in the following paragraphs. The molecules described in this example were first tested in the CAT assay and the dot-blot binding-competition assay. In most cases, molecules were only tested in the FXa assay if there was a discrepancy between the results in the CAT assay and the dot-blot binding-competition assay.
(§2) Each molecule was evaluated for binding to tissue factor pathway inhibitor (TFPI) in a binding-competition assay. For these experiments, 10 nM human TFPI (American Diagnostica, Stamford, Conn., catalog #4900PC) was incubated with trace amounts of radiolabeled ARC17480 and 5000 nM, 1666.67 nM, 555.56 nM, 185.19 nM, 61.73 nM, 20.58 nM, 6.86 nM, 2.29 nM, 0.76 nM or 0.25 nM of unlabeled competitor aptamer. ARC17480 was included as a competitor in every experiment as a control. For each molecule, the percentage of radiolabeled ARC17480 bound at each competitor aptamer concentration was used for analysis. The percentage of radiolabeled ARC17480 bound was plotted as a function of aptamer concentration and fit to the equation y=(max/(1+x/IC₅₀))+int, where y=the percentage of radiolabeled ARC17480 bound, x=the concentration of aptamer, max=the maximum radiolabeled ARC17480 bound, and int=the y-intercept, to generate an IC₅₀ value for binding-competition. The IC₅₀ of each aptamer was compared to the IC₅₀ of ARC17480 that was evaluated in the same experiment. A mutation was considered tolerated in the binding-competition assay if the IC₅₀ of that molecule was not more than 5-fold greater than that of ARC17480 evaluated in the same experiment. Tolerated mutations are indicated in Table 40 as meeting the assay criteria (“yes”) or not meeting the assay criteria (“no”).

[3] = target: T1, TFPI (tissue factor pathway inhibitor, …); assay: competition; dot-blot
Method: as §1, §2

[4] = target: T1, TFPI (tissue factor pathway inhibitor, …); assay: competition; dot-blot; CAT criterion not met
Method: as §1, §2

[5] = target: T1, TFPI (tissue factor pathway inhibitor, …); assay: competition; meets binding-competition criterion; CAT and FXa no
Method: as §1
Each molecule was evaluated for binding to tissue factor pathway inhibitor (TFPI) in a binding-competition assay. For these experiments, 10 nM human TFPI (American Diagnostica, Stamford, Conn., catalog #4900PC) was incubated with trace amounts of radiolabeled ARC17480 and 5000 nM, 1666.67 nM, 555.56 nM, 185.19 nM, 61.73 nM, 20.58 nM, 6.86 nM, 2.29 nM, 0.76 nM or 0.25 nM of unlabeled competitor aptamer. ARC17480 was included as a competitor in every experiment as a control. For each molecule, the percentage of radiolabeled ARC17480 bound at each competitor aptamer concentration was used for analysis. […] The IC₅₀ of each aptamer was compared to the IC₅₀ of ARC17480 that was evaluated in the same experiment. A mutation was considered tolerated in the binding-competition assay if the IC₅₀ of that molecule was not more than 5-fold greater than that of ARC17480 evaluated in the same experiment. […]

[6] = target: T1, TFPI (tissue factor pathway inhibitor, …); assay: competition; dot-blot; FXa assay criterion not met
Method: Each molecule was evaluated for binding to tissue factor pathway inhibitor (TFPI) in a binding-competition assay. For these experiments, 10 nM human TFPI (American Diagnostica, Stamford, Conn., catalog #4500PC) was incubated with trace amounts of radiolabeled ARC17480 and 5000 nM, 1666.67 nM, 555.56 nM, 185.19 nM, 61.73 nM, 20.58 nM, 6.86 nM, 2.29 nM, 0.76 nM or 0.25 nM of unlabeled competitor aptamer. ARC17480 was included as a competitor in every experiment as a control. For each molecule, the percentage of radiolabeled ARC17480 bound at each competitor aptamer concentration was used for analysis. The percentage of radiolabeled ARC17480 bound was plotted as a function of aptamer concentration and fit to the equation y=(max/(1+x/IC₅₀))+int, where y=the percentage of radiolabeled ARC17480 bound, x=the concentration of aptamer, max=the maximum radiolabeled ARC17480 bound, and int=the y-intercept, to generate an IC₅₀ value for binding-competition. The IC₅₀ of each aptamer was compared to the IC₅₀ of ARC17480 that was evaluated in the same experiment. A substitution was considered tolerated in the binding-competition assay if the IC₅₀ of that molecule was not more than 5-fold greater than that of ARC17480 evaluated in the same experiment. Tolerated substitutions are indicated in Table 37 as meeting the assay criteria (“yes”) or not meeting the assay criteria (“no”).

T1 sequence (P10646 29-304): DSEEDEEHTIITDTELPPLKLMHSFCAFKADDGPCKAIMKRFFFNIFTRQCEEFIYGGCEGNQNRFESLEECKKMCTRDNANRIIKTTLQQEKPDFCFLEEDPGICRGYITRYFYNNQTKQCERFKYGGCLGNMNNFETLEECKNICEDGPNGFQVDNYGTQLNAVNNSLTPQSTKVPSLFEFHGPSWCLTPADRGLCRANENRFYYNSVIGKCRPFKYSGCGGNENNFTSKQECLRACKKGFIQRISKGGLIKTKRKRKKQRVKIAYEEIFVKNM

## UUACUUGGCUCGUUAGGUGCGUAUA (mixed, 2'-OMe A/G/U, 2'-deoxy C, 3' idT) [ARC33900]
[1]
  binding signal: ≤ 5 fold IC50 of ARC17480

## AUACUUGGCUCGUUAGGUGCGUAUA (mixed, 2'-OMe A/G/U, 2'-deoxy C, 3' idT) [ARC33895]
[1]
  binding signal: ≤ 5 fold IC50 of ARC17480

## UAUACUUGGCUCGUUAGGUGCGUAUA (mixed, 2'-OMe A/G/U, 2'-deoxy C, 3' idT) [ARC33891]
[1]
  binding signal: ≤ 5 fold IC50 of ARC17480

## AUAUACUUGGCUCGUUAGGUGCGUAUA (mixed, 2'-OMe A/G/U, 2'-deoxy C, 3' idT) [ARC33890]
[1]
  binding signal: ≤ 5 fold IC50 of ARC17480

## GGAAUAUACUUGGCUCGUCAGGUGCGUAUAUA (mixed, 2'-OMe A/G/U and mC19, other C 2'-deoxy, 3' idT) [ARC33167]
[2]
  binding signal: ≤ 5 fold IC50 of ARC17480

## GGAAGAUACUUGGCUCGUUAGGUGCGUAUAUA (XNA, 2'-OMe except dC9, dC14, dC16, dC25; 3' idT) [ARC34865]
[3]
  binding signal: ≤ 5 fold IC50 vs ARC17480

## GGAAUAUACUUGGCUCGUUAGGUGCGUAUAUU (mixed, 2'-OMe A/G/U, 2'-deoxy C, 3' idT) [ARC33180]
[2]
  binding signal: ≤ 5 fold IC50 of ARC17480

## UGAAUAUACUUGGCUCGUUAGGUGCGUAUAUA (mixed, 2'-OMe A/G/U, 2'-deoxy C, 3' idT) [ARC33149]
[2]
  binding signal: ≤ 5 fold IC50 of ARC17480

## GGAGUAUACUUGGCUCGUUAGGUGCGUAUAUA (XNA, 2'-OMe except dC9, dC14, dC16, dC25; 3' idT) [ARC34862]
[3]
  binding signal: ≤ 5 fold IC50 vs ARC17480

## GAAAUAUACUUGGCUCGUUAGGUGCGUAUAUA (XNA, 2'-OMe except dC9, dC14, dC16, dC25; 3' idT) [ARC34858]
[3]
  binding signal: ≤ 5 fold IC50 vs ARC17480

## GGACUAUACUUGGCUCGUUAGGUGCGUAUAUA (XNA, 2'-OMe except dC9, dC14, dC16, dC25; 3' idT) [ARC34863]
[3]
  binding signal: ≤ 5 fold IC50 vs ARC17480

## GGAAUAUGCUUGGCUCGUUAGGUGCGUAUAUA (XNA, 2'-OMe except dC9, dC14, dC16, dC25; 3' idT) [ARC34870]
[4]
  binding signal: ≤ 5 fold IC50 vs ARC17480

## GGAAUGUACUUGGCUCGUUAGGUGCGUAUAUA (XNA, 2'-OMe except dC9, dC14, dC16, dC25; 3' idT) [ARC34866]
[3]
  binding signal: ≤ 5 fold IC50 vs ARC17480

## GGAAUAUACUUGGTUCGUUAGGUGCGUAUAUA (mixed, 2'-OMe A/G/U, dT14, 2'-deoxy C, 3' idT) [ARC33162]
[5]
  binding signal: ≤ 5 fold IC50 of ARC17480

## GCAAUAUACUUGGCUCGUUAGGUGCGUAUAUA (XNA, 2'-OMe except dC9, dC14, dC16, dC25; 3' idT) [ARC34859]
[3]
  binding signal: ≤ 5 fold IC50 vs ARC17480

## GGAAUAUACUUGGCUCGUUAGGUGCGUAUACA (mixed, 2'-OMe A/G/U and mC31, other C 2'-deoxy, 3' idT) [ARC33179]
[2]
  binding signal: ≤ 5 fold IC50 of ARC17480

## GGAAUAUCCUUGGCUCGUUAGGUGCGUAUAUA (XNA, 2'-OMe except dC9, dC14, dC16, dC25; 3' idT) [ARC34871]
[4]
  binding signal: > 5 fold IC50 vs ARC17480

## GGGAUAUACUUGGCUCGUUAGGUGCGUAUAUA (XNA, 2'-OMe except dC9, dC14, dC16, dC25; 3' idT) [ARC34860]
[3]
  binding signal: ≤ 5 fold IC50 vs ARC17480

## GGUAUAUACUUGGCUCGUUAGGUGCGUAUAUA (mixed, 2'-OMe A/G/U, 2'-deoxy C, 3' idT) [ARC33151]
[2]
  binding signal: ≤ 5 fold IC50 of ARC17480

## GGAAUAUACUUGGCUCGUUAGGUGCGUAUUUA (mixed, 2'-OMe A/G/U, 2'-deoxy C, 3' idT) [ARC33178]
[2]
  binding signal: ≤ 5 fold IC50 of ARC17480

## GGCAUAUACUUGGCUCGUUAGGUGCGUAUAUA (XNA, 2'-OMe except dC9, dC14, dC16, dC25; 3' idT) [ARC34861]
[3]
  binding signal: ≤ 5 fold IC50 vs ARC17480

## GGAAUAUUCUUGGCUCGUUAGGUGCGUAUAUA (mixed, 2'-OMe A/G/U, 2'-deoxy C, 3' idT) [ARC33156]
[5]
  binding signal: ≤ 5 fold IC50 of ARC17480

## CGAAUAUACUUGGCUCGUUAGGUGCGUAUAUA (XNA, 2'-OMe except dC9, dC14, dC16, dC25; 3' idT) [ARC34857]
[3]
  binding signal: ≤ 5 fold IC50 vs ARC17480

## GGAAAAUACUUGGCUCGUUAGGUGCGUAUAUA (XNA, 2'-OMe except dC9, dC14, dC16, dC25; 3' idT) [ARC34864]
[4]
  binding signal: ≤ 5 fold IC50 vs ARC17480

## GGAAUCUACUUGGCUCGUUAGGUGCGUAUAUA (XNA, 2'-OMe except dC9, dC14, dC16, dC25; 3' idT) [ARC34867]
[4]
  binding signal: ≤ 5 fold IC50 vs ARC17480

## GGAAUAUACCUGGCUCGUUAGGUGCGUAUAUA (mixed, 2'-OMe A/G/U and mC10, other C 2'-deoxy, 3' idT) [ARC33158]
[2]
  binding signal: ≤ 5 fold IC50 of ARC17480

## GUAAUAUACUUGGCUCGUUAGGUGCGUAUAUA (mixed, 2'-OMe A/G/U, 2'-deoxy C, 3' idT) [ARC33150]
[2]
  binding signal: ≤ 5 fold IC50 of ARC17480

## GGAACAUACUUGGCUCGUUAGGUGCGUAUAUA (mixed, 2'-OMe A/G/U and mC5, other C 2'-deoxy, 3' idT) [ARC33153]
[2]
  binding signal: ≤ 5 fold IC50 of ARC17480

## GGAAUACACUUGGCUCGUUAGGUGCGUAUAUA (mixed, 2'-OMe A/G/U and mC7, other C 2'-deoxy, 3' idT) [ARC33155]
[5]
  binding signal: ≤ 5 fold IC50 of ARC17480

## GGAUUAUACUUGGCUCGUUAGGUGCGUAUAUA (mixed, 2'-OMe A/G/U, 2'-deoxy C, 3' idT) [ARC33152]
[2]
  binding signal: ≤ 5 fold IC50 of ARC17480

## GGAAUAUACUUGGCUCGUUAGGUGCGUAUAUA (XNA, 2'-OMe except dC9, dC14, dC25; 2'-OMe C16; 3' idT) [ARC18540]
[6]
  binding signal: ≤ 5 fold IC50 vs ARC17480

## GGAAUACUUGGCUCGUUAGGUGCGUAUAUA (mixed, 2'-OMe A/G/U, 2'-deoxy C, 3' idT) [ARC33907]
[1]
  binding signal: ≤ 5 fold IC50 of ARC17480

## AUAUACUUGGCUCGUUAGGUGCGUAU (mixed, 2'-OMe A/G/U, 2'-deoxy C, 3' idT) [ARC32307]
[1]
  binding signal: ≤ 5 fold IC50 of ARC17480
